Source: publication PMC3185033, “Exportin 4 Interacts with Sox9 through the HMG Box and Inhibits the DNA Binding of Sox9” (PLoS ONE, 2011)

Molecular target: T1, purified recombinant FLAG-Exp4 protein (human, UniProt Q9C0E2 1-1151)
T1 construct: human exportin 4, full-length cDNA assembled from three clones; also called recombinant Exp4; source: baculovirus system (pFASTBAC), purified recombinant
Assay: pull-down; GST-fused HMG box fragments incubated with purified recombinant FLAG-Exp4 and glutathione Sepharose 2 hr at 4°C; Western blot with anti-Exp4; no RanGTP
Conditions: both partners purified

T1 sequence (Q9C0E2 whole entry): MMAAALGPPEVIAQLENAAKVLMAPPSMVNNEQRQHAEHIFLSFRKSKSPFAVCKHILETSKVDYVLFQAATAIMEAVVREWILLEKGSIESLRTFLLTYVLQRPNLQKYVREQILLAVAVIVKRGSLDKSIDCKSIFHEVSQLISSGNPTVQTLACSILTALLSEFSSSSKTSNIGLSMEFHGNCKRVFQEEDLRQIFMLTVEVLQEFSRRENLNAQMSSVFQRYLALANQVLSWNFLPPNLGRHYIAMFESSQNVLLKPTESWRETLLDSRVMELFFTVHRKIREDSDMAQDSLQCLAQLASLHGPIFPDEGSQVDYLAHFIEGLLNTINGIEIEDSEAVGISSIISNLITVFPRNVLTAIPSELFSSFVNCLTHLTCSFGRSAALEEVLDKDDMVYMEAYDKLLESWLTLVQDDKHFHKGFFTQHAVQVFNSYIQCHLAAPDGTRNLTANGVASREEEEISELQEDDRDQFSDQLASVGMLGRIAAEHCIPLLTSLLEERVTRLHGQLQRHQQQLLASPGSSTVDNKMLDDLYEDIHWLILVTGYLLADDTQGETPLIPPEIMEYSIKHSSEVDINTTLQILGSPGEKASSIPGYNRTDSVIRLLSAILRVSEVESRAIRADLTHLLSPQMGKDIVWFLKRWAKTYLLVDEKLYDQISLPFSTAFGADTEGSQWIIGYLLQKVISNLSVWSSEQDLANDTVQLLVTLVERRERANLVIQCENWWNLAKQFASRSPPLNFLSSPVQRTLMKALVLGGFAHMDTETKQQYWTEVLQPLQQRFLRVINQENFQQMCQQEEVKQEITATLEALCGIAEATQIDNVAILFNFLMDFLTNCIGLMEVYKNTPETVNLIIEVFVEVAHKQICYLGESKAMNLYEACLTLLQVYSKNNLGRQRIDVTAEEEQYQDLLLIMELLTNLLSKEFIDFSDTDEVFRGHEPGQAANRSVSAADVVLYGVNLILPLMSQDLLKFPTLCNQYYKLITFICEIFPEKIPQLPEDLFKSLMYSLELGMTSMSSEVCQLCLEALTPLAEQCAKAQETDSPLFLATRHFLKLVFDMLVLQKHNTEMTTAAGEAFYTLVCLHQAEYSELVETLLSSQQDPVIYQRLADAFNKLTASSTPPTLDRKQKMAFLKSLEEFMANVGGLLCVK

Row | Binder | binding result
1 | GST-tagged HMG box fragment of Sox2 (33–123 a.a.) (domain or fragment, source: E. coli, prepared on glutathione-Sepharose) not shown | binds
2 | GST-fused Sox9 region #2 (95–186 a.a.), HMG box domain (domain or fragment, mouse, UniProt Q04887 95-186, looked up, cloned in pGEX-6P-1; also called GST-tagged HMG box fragment of Sox9) VNGSSKNKPHVKRPMNAFMVWAQAARRKLADQYPHLHNAELSKTLGKLWRLLNESEKRPFVEEAERLRVQHKKDHPDYKYQPRRRKSVKNGQ | binds
